Values quoted from earlier work as cited in PMC4618378.

Experiments:
[1] = biological target: rod PDE6 gamma-subunit (Homo sapiens) (UniProt P18545)
[2] = biological target: cone PDE6 gamma-subunit (Homo sapiens) (UniProt Q13956)
Sequence of UniProt Q13956 (Q13956 whole entry): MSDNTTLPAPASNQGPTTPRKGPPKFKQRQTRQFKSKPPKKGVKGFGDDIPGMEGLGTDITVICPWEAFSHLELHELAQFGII

Sequence of UniProt P18545 (P18545 whole entry): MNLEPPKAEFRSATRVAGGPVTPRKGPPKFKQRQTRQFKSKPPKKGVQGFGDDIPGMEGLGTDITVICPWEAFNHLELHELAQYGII

Ki [1]: 0.155 nM
Ki [2]: 0.078 nM
Substance: PDE6C (from UniProt P51160)
